Here are results for one molecule from paper PMC6748655 (Cell host & microbe, 2019).

The target of assay [1] is representative H4 HA (Influenza A virus H4, strain not named …, UniProt M1UPL4, strain). Put plainly: ELISA.
The target of assay [2] is HA on intact H3N2 A/Aichi/2/1968 (X31) virions (Influenza A virus H3N2 A/Aichi/2/1968 …, UniProt P03437, strain). Put plainly: ELISA. Background: An ELISA detects its analyte on a solid surface through an enzyme-linked reagent.

B1: FL-1066 IgG (human IgG1) (antibody, V domains shown)
VH: DVKLVESGEGLVKPGGSLKLSCAASGFTFSGYDMSWVRQTPEKRLEWVAYISSGGDYIYYADTVKGRFTISRDNARNTLYLQMSSLKSEDTAMYYCTRDSDYYGSRVWFAYWGQGTLVTVSG
VL: QAVVTQESALTTSPGETVTLTCRSSTGAVTTSNYANWVQEKPDHLFTGLIGGTNNRAPGVPARFSGSLIGDKAALTITGAQTEDEAIYFCALWFSNHWVFGGGTKLTVL
With B1, the binding result in assay [1] and in assay [2] was “binds” in each case.
